Reference: paper PMC3310290 (2012)
Positions of bridges follow the written chain, without caps; N, C: chain ends. No end group written: not given here. fluorescein = Fluorescein label on the N-terminus, attached via Aca

Key:
[1] = target: T1, DD(E) DD(E) (Homo sapiens, UniProt P02671); assay: fluorescence polarization
T1 chain 1: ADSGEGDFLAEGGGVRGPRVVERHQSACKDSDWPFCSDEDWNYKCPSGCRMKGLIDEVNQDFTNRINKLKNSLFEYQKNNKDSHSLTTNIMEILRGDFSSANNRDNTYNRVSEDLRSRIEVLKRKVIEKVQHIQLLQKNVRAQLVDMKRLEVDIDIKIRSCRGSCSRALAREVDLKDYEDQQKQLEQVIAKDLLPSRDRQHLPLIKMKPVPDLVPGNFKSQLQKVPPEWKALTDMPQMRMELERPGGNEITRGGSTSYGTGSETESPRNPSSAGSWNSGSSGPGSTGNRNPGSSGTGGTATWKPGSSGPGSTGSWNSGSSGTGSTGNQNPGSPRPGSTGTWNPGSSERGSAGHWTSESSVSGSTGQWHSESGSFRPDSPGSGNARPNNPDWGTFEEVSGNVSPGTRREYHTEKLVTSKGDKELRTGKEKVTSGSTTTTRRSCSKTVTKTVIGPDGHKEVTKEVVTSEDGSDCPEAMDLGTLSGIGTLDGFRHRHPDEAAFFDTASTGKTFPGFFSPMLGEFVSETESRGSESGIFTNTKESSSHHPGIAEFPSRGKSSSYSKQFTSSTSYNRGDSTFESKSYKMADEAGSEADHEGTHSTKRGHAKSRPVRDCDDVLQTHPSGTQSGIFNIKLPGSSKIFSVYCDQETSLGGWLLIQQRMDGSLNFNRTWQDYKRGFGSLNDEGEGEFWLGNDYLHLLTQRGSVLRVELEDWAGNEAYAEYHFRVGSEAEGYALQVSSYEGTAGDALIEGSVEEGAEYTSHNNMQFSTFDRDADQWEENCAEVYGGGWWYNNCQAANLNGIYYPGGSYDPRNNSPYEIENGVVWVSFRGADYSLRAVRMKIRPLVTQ
T1 chain 2: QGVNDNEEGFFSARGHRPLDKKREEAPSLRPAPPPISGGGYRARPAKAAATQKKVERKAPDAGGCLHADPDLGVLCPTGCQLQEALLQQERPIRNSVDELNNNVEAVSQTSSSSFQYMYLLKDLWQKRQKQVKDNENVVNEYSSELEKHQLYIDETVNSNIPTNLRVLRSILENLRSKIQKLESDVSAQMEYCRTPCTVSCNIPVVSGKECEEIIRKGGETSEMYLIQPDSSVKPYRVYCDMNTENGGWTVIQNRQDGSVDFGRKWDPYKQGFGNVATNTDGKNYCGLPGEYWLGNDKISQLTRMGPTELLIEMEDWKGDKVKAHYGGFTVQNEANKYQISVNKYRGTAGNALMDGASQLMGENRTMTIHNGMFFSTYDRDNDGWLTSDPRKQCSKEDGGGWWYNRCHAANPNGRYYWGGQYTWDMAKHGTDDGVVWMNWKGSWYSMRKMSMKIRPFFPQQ
T1 chain 3: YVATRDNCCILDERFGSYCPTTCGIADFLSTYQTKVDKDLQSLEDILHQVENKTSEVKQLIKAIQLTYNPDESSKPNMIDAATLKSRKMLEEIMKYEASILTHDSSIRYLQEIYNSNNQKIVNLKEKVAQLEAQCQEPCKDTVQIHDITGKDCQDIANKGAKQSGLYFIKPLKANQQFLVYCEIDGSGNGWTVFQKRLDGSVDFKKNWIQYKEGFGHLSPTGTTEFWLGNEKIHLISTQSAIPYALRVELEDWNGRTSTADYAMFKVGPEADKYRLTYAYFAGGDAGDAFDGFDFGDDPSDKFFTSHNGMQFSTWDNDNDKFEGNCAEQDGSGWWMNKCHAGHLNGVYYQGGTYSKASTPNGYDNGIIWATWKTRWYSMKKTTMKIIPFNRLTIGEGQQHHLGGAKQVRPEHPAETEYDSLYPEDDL

[2] = target: T2, fibrinogen (Homo sapiens, UniProt P02671); assay: fluorescence polarization
T2 chain 1: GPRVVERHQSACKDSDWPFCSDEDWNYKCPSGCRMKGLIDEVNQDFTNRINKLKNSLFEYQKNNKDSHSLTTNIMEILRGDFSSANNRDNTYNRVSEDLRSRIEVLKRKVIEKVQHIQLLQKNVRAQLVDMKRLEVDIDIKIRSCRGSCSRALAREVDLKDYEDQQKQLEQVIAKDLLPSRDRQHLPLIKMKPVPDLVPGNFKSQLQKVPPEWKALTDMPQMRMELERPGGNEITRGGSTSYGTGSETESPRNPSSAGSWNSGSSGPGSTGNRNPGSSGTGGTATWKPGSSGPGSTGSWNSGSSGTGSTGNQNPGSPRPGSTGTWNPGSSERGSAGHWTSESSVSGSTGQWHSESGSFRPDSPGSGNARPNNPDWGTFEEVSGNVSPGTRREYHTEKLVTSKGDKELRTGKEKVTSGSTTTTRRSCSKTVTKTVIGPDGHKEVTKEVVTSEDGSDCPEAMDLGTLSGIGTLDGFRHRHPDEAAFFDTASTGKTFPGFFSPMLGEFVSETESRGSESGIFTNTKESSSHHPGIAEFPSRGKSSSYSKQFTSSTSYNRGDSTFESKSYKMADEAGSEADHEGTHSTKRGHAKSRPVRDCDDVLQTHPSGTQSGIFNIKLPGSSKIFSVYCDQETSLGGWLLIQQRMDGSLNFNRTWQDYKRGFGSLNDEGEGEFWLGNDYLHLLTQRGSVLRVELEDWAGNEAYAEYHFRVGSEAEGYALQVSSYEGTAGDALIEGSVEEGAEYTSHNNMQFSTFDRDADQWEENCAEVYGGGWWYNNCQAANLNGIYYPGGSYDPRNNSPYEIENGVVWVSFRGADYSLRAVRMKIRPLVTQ
T2 chain 2: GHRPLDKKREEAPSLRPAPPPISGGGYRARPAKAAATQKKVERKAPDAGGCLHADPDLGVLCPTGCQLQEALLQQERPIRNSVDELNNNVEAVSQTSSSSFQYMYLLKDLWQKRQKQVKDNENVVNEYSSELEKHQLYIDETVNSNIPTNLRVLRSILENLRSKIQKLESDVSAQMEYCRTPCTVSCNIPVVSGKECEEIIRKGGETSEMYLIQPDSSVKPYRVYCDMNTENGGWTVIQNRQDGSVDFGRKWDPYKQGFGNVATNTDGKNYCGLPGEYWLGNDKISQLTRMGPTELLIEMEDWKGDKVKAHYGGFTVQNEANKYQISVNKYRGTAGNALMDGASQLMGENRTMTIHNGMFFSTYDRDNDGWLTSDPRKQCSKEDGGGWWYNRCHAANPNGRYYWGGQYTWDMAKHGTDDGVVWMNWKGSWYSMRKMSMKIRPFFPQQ
T2 chain 3: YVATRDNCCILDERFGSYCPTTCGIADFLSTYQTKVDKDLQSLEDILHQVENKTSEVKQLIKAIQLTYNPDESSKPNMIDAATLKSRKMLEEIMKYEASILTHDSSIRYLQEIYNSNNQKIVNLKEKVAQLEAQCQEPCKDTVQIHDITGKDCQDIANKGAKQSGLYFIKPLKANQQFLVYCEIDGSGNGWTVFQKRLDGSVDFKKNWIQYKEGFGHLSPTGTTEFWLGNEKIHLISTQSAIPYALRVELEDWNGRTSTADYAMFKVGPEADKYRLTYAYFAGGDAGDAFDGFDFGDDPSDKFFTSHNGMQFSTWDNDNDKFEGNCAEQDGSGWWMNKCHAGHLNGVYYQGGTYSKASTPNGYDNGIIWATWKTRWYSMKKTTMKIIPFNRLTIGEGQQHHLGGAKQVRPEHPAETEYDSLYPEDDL

[3] = target: T3, fibrin (Homo sapiens, UniProt P02671); assay: fibrin plate depletion assay
T3 chain 1: ADSGEGDFLAEGGGVR
T3 chain 2: QGVNDNEEGFFSAR
T3 chain 3: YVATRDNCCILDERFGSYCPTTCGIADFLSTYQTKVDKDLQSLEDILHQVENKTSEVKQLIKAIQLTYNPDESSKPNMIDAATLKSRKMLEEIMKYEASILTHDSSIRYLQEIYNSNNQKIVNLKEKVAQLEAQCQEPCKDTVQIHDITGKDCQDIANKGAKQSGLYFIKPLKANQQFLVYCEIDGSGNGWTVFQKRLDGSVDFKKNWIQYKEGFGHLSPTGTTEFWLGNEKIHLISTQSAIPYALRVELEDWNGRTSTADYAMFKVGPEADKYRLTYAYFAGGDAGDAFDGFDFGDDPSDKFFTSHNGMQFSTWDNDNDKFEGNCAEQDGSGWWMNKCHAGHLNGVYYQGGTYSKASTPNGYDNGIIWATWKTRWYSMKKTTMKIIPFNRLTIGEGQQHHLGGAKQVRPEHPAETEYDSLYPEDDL

[4] = target: T2, fibrinogen; assay: FP displacement
[5] = target: T2, fibrinogen; assay: ITC
[6] = target: T1, DD(E) DD(E); assay: FP displacement

## {fluorescein-Aca}-QWECPYGLCWIQ (cysteine pairing not given here) [Tn6-2b-Fl]
[1]
  Kd: 0.057 µM
[2]
  Kd: 22 µM

B1: Tn7-3b-Gd (peptide)
chain: GLPCDYYGTCLD-NH2
modifications: disulfide 4-10; not fully specified (N-terminus); also: Gd(III) chelated by DTPA
[3]
  Kd: 8.4 µM

## WFHCPYDLCHIL [Tn6-1]
[4]
  Kd: > 200 µM

## LPCDYYGTCLD [Tn7-3]
[5]
  Kd: > 20 µM

## WECPYGLCWIQ [Tn6-2a]
[5]
  Kd: > 50 µM
[3]
  Kd: 2.9 µM

## LPCDYYGTCLD-NH2 (disulfide 3-9; not fully specified (N-terminus); also: Gd(III) chelated by DTPA) [Tn7-3a-Gd]
[6]
  Ki: 2.9 µM

B2: Tn6-1-Gd (peptide)
chain: GGWFHCPYDLCHIL-NH2
modifications: disulfide 6-11; not fully specified (N-terminus); also: Gd(III) chelated by DTPA
[3]
  Kd: 3.1 µM
